The source of these data is US10617701B2, “Nutritional compositions containing phosphatidylethanolamine, sphingomyelin and docosahexaenoic acid” (Mead Johnson Nutrition Company, priority 2015, dated 2020).

For this experiment, the system named is embryonic mouse cortical cells. Put plainly: Functional neuronal maturation of cortical networks on microelectrode arrays (MEA recording, chronic treatment). The format is cell-based. The following applies: cortical networks on MEAs. The procedure:
Cortical cells were grown on multi-well microelectrode arrays (MEAs) and treated with 10 different experimental series, including different combinations of test agents (PE, SM, LF and DHA) and the activity was recoded at 4 different time points during the 4 weeks of functional neuronal maturation Cells growing on glass slides were treated in parallel for morphological and cell population analysis. These experiments aimed to elucidate whether the test compounds affect the functional and morphological neuronal maturation […] (see FIG. 1). […]
Primary cell culture for MEA recordings: In brief, frontal cortex tissue was harvested from embryonic day […] NMRI mice. […] Cultures on MEAs were incubated at 37° C. in a 10% CO2 atmosphere until ready for use, which usually is four weeks to three months after seeding. […]
Multichannel Recording: After establishing a stable activity pattern after 4 weeks, the neuronal networks on MEA chips are employed for substance testing. […] The signals routinely recorded by these neurochips are located in a range of 15-1800 […] . […]

B1: lactoferrin (protein, UniProt P24627 20-708, looked up)
Lactotransferrin: APRKNVRWCTISQPEWFKCRRWQWRMKKLGAPSITCVRRAFALECIRAIAEKKADAVTLDGGMVFEAGRDPYKLRPVAAEIYGTKESPQTHYYAVAVVKKGSNFQLDQLQGRKSCHTGLGRSAGWIIPMGILRPYLSWTESLEPLQGAVAKFFSASCVPCIDRQAYPNLCQLCKGEGENQCACSSREPYFGYSGAFKCLQDGAGDVAFVKETTVFENLPEKADRDQYELLCLNNSRAPVDAFKECHLAQVPSHAVVARSVDGKEDLIWKLLSKAQEKFGKNKSRSFQLFGSPPGQRDLLFKDSALGFLRIPSKVDSALYLGSRYLTTLKNLRETAEEVKARYTRVVWCAVGPEEQKKCQQWSQQSGQNVTCATASTTDDCIVLVLKGEADALNLDGGYIYTAGKCGLVPVLAENRKSSKHSSLDCVLRPTEGYLAVAVVKKANEGLTWNSLKDKKSCHTAVDRTAGWNIPMGLIVNQTGSCAFDEFFSQSCAPGADPKSRLCALCAGDDQGLDKCVPNSKEKYYGYTGAFRCLAEDVGDVAFVKNDTVWENTNGESTADWAKNLNREDFRLLCLDGTRKPVTEAQSCHLAVAPNHAVVSRSDRAAHVKQVLLHQQALFGKNGKNCPDKFCLFKSETKNLLFNDNTECLAKLGGRPTYEEYLGTEYVTAIANLKKCSTSPLLEACAFLTR
As for B1, the “acute effect on neuronal network activity in vitro” value is reported as “acutely affect neuronal network activity”.
